We go through one molecule from article PMC10641899, “Identification of HuR–RNA Interfering Compounds by Dynamic Combinatorial Chemistry and Fluorescence Polarization”.

The target in the data set is HuR RRM1+2 (RRM1/2) (UniProt Q15717 1-186). Put plainly: fluorescence polarization; 2.4 uM HuR RRM1/2, 45 nM RNA, 15% DMSO; complex 105 mP vs free RNA 35 mP; FP: PBS (20 mM sodium phosphate, 150 mM NaCl, 1 mM DTT, 0.05% Pluronic-127, 15% DMSO), 293 K; pH not stated. To be noted: protein: recombinant; tags: N-terminal His6-TEV, tag cleaved and removed; label: 5'-FAM; single strand.
Sequence of HuR RRM1+2 (RRM1/2) (Q15717 1-186): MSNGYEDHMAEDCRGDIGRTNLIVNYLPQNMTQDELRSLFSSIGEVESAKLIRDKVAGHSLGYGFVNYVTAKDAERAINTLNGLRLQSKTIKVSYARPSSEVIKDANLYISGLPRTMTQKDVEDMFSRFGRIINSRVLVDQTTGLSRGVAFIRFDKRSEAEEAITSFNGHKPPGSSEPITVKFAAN

Regarding UAUUUAUUUA (ssRNA) [5'-FAM ARE RNA probe], the binding result is recorded as “binds”.
